Experimental data from PMC5291697.

Target: Ncore-MoRE (MeV N with MoRE relocated from Ntail to Ncore position 138) (measles virus (MeV-Edm strain))
Test: co-IP

B1: standard measles virus (MeV) phosphoprotein P, full length (natural protein)
chain: MATLLRSLALFKRNKDKPPITSGSGGAIRGIKHIIIVPIPGDSSITTRSRLLDRLVRLIGNPDVSGPKLTGALIGILSLFVESPGQLIQRITDDPDVSIRLLEVVQSDQSQSGLTFASRGTNMEDEADQYFSHDDPISSDQSRFGWFENKEISDIEVQDPEGFNMILGTILAQIWVLLAKAVTAPDTAADSELRRWIKYTQQRRVVGEFRLERKWLDVVRNRIAEDLSLRRFMVALILDIKRTPGNKPRIAEMICDIDTYIVEAGLASFILTIKFGIETMYPALGLHEFAGELSTLESLMNLYQQMGETAPYMVILENSIQNKFSAGSYPLLWSYAMGVGVELENSMGGLNFGRSYFDPAYFRLGQEMVRRSAGKVSSTLASELGITAEDARLVSEIAMHTTEDKISRAVGPRQAQVSFLHGDQSENELPRLGGKEDRRVKQSRGEARESYRETGPSRASDARAAHLPTGTPLDIDTASESSQDPQDSRRSADALLRLQAMAGISEEQGSDTDTPIVYNDRNLLD
- coprecipitation efficiency relative to standard N (% of standard N): 75
